The data set concerns the molecule itself. The data set is described as follows: AFM single-molecule force spectroscopy (AFM-SMFS); living WTT-CHO cells transfected with 1 µg of HA-GPCR vector, basal state, 37 °C; anti-HA antibody on the AFM tip pulls the HA-receptor out of the membrane; unfolding distances fitted by a Gaussian mixture (BIC) and each population assigned to an oligomeric state by the receptor's theoretical length.

B1: HA-angiotensin II subtype 1a receptor (receptor, UniProt P25095 1-359, looked up)
chain: MALNSSAEDGIKRIQDDCPKAGRHSYIFVMIPTLYSIIFVVGIFGNSLVVIVIYFYMKLKTVASVFLLNLALADLCFLLTLPLWAVYTAMEYRWPFGNHLCKIASASVSFNLYASVFLLTCLSIDRYLAIVHPMKSRLRRTMLVAKVTCIIIWLMAGLASLPAVIHRNVYFIENTNITVCAFHYESRNSTLPIGLGLTKNILGFLFPFLIILTSYTLIWKALKKAYEIQKNKPRNDDIFRIIMAIVLFFFFSWVPHQIFTFLDVLIQLGVIHDCKISDIVDTAMPITICIAYFNNCLNPLFYGFLGKKFKKYFLQLLKYIPPKAKSHSSLSTKMSTLSYRPSDNMSSSAKKPASCFEVE
notes: angiotensin II subtype 1a receptor, family A GPCR; theoretical contour length of the HA-tagged receptor 147 nm at 0.4 nm per amino acid; The subtype name 1a points to a rodent receptor (rat P25095 or mouse P29754, both 359 residues); 147 nm (about 368 residues) fits 359 residues plus a 9-residue HA tag; also called HA-AT1a-R; AT1a-R; source: WTT-CHO cells, transiently transfected (1 µg vector); …
On to B1, for which the “stoichiometry N” value stood at 2.
